In IntAct's records for PubMed 35512704:

B1: Speckle-type POZ protein (Homo sapiens), O43791 (parent)
chain: MSRVPSPPPPAEMSSGPVAESWCYTQIKVVKFSYMWTINNFSFCREEMGEVIKSSTFSSGANDKLKWCLRVNPKGLDEESKDYLSLYLLLVSCPKSEVRAKFKFSILNAKGEETKAMESQRAYRFVQGKDWGFKKFIRRDFLLDEANGLLPDDKLTLFCEVSVVQDSVNISGQNTMNMVKVPECRLADELGGLWENSRFTDCCLCVAGQEFQAHKAILAARSPVFSAMFEHEMEESKKNRVEINDVEPEVFKEMMCFIYTGKAPNLDKMADDLLAAADKYALERLKVMCEDALCSNLSVENAAEILILADLHSADQLKTQAVDFINYHASDVLETSGWKSMVVSHPHLVAEAYRSLASAQCPFLGPPRKRLKQS
partner: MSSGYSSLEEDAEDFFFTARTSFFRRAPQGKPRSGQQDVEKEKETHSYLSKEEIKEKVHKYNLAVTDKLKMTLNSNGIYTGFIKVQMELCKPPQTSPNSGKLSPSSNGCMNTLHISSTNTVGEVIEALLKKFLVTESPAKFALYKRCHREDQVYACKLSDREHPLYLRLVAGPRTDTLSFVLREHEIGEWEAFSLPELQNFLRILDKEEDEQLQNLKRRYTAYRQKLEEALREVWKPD
B2: Speckle-type POZ protein (Homo sapiens), O43791 (parent)
chain: B1 chain
partner: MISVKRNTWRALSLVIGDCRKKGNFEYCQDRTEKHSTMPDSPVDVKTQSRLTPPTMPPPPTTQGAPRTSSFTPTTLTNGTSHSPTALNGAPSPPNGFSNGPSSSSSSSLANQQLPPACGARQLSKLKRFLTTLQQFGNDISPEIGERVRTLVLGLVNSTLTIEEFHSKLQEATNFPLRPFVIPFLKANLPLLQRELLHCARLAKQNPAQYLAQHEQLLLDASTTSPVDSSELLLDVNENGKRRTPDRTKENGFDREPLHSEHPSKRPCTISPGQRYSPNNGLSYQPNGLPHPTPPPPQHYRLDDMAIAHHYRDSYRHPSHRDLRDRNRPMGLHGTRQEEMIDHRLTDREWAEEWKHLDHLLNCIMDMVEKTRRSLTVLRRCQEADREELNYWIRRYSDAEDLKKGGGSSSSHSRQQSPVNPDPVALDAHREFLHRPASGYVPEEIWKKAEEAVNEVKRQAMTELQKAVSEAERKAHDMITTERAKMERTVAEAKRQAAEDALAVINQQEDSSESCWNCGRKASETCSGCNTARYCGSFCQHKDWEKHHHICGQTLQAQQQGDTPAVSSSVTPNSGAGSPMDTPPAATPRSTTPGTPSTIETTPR
B3: Speckle-type POZ protein (Homo sapiens), O43791 (parent)
chain: B1 chain
partner: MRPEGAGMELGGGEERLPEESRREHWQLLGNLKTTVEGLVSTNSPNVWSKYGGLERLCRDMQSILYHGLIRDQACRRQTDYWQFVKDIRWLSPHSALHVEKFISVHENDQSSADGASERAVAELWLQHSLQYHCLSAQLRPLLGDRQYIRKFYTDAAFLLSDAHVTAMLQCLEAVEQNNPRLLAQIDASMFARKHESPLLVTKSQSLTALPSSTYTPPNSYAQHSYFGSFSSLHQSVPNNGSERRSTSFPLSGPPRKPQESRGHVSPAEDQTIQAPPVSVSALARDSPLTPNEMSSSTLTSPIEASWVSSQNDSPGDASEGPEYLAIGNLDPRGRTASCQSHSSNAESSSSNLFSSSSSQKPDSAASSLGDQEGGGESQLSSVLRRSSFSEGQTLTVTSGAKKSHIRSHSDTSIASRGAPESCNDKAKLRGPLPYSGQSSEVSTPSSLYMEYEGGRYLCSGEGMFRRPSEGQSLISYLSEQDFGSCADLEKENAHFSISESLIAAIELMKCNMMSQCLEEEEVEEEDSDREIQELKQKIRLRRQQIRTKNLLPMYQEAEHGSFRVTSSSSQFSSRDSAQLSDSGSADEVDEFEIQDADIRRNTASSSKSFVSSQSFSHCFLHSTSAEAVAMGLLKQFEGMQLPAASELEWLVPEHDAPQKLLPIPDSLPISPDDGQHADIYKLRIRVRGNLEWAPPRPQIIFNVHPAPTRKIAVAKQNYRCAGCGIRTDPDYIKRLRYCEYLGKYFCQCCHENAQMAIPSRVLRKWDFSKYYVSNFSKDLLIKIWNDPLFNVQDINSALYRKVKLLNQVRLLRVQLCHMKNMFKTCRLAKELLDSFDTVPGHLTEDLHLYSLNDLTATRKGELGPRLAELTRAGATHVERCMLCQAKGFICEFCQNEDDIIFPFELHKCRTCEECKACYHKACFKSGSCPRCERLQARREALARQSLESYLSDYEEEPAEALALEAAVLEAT
B4: Speckle-type POZ protein (Homo sapiens), O43791 (parent)
chain: B1 chain
partner: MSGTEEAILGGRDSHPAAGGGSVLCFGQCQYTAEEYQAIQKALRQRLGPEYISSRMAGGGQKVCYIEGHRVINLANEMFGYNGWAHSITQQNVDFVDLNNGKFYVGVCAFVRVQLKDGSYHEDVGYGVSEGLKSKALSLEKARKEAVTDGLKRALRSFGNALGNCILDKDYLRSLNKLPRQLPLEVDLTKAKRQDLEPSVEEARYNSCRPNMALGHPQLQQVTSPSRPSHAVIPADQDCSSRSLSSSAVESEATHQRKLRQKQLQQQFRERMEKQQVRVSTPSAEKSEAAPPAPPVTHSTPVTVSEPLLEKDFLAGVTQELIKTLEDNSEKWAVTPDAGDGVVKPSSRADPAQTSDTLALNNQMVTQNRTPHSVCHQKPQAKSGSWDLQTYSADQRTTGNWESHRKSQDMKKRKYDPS
B5: Speckle-type POZ protein (Homo sapiens), O43791 (parent)
chain: B1 chain
partner: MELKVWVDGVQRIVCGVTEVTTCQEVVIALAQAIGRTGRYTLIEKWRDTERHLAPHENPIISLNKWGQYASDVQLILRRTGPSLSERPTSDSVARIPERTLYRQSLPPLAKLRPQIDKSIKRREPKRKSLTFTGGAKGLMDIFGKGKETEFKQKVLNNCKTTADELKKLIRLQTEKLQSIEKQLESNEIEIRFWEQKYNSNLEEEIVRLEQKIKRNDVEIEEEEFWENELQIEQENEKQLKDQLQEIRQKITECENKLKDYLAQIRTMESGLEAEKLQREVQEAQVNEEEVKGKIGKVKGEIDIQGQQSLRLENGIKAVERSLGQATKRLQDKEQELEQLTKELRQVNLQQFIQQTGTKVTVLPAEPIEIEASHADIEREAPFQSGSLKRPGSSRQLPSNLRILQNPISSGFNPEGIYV
B6: Speckle-type POZ protein (Homo sapiens), O43791 (parent)
chain: B1 chain
partner: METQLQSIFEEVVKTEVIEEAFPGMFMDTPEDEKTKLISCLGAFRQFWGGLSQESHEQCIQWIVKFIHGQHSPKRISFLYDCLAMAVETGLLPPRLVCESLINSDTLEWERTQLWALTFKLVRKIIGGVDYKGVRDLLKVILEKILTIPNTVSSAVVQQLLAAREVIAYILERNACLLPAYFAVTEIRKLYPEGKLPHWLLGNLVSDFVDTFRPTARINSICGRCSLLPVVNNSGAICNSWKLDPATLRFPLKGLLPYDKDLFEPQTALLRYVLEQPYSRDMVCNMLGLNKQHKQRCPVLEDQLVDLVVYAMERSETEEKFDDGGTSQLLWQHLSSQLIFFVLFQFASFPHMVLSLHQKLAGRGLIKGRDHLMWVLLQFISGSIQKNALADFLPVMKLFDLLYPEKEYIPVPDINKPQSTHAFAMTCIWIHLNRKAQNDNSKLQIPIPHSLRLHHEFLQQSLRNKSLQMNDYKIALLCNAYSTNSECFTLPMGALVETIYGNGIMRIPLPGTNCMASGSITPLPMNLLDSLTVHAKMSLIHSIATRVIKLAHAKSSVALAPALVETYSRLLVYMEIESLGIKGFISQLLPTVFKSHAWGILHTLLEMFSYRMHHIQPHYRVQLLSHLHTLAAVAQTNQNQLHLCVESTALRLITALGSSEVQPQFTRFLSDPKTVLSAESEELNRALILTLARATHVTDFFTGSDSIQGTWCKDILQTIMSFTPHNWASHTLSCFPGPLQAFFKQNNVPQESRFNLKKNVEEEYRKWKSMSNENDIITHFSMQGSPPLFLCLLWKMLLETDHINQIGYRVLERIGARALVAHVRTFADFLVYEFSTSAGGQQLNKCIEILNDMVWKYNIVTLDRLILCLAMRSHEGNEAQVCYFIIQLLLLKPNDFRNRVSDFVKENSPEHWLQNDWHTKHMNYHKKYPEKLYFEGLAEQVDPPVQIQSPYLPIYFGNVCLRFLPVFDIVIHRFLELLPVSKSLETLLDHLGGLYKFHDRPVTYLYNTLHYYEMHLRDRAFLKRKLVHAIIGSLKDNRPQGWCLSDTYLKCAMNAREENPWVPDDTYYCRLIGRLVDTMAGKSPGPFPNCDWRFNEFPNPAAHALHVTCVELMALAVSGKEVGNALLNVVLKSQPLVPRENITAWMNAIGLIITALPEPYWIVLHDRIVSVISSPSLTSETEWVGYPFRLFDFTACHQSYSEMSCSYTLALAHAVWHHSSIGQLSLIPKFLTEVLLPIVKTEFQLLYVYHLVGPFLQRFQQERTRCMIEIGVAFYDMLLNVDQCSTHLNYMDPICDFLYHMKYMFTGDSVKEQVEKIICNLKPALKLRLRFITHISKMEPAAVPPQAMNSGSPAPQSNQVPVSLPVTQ

Variants of: B1
Conditions: with rasf3_human RASSF3, Q86WH2

| Variant | effect of a mutation on the interaction |
| --- | --- |
| F102C | with no effect |

Variants of: B2
Conditions: with mtg8_human RUNX1T1, Q06455

| Variant | effect of a mutation on the interaction |
| --- | --- |
| F102C | with no effect |

Variants of: B2
Conditions: with mtg8_human RUNX1T1, Q06455
Remark: another data set of the same source

| Variant | effect of a mutation on the interaction |
| --- | --- |
| F102C | disrupting interaction strength |
| F133L | disrupting interaction strength |
| F133V | disrupting interaction strength |
| Y87C | disrupting interaction strength |

Variants of: B2
Conditions: with mtg8_human RUNX1T1, Q06455
Remark: another data set of the same source

| Variant | effect of a mutation on the interaction |
| --- | --- |
| F133L | with no effect |

Variants of: B2
Conditions: with mtg8_human RUNX1T1, Q06455
Remark: another data set of the same source

| Variant | effect of a mutation on the interaction |
| --- | --- |
| F133V | with no effect |

Variants of: B2
Conditions: with mtg8_human RUNX1T1, Q06455
Remark: another data set of the same source

| Variant | effect of a mutation on the interaction |
| --- | --- |
| Y87C | with no effect |

Variants of: B3
Conditions: with rubic_human RUBCN

| Variant | effect of a mutation on the interaction |
| --- | --- |
| F102C | with no effect |

Variants of: B3
Conditions: with rubic_human RUBCN
Remark: another data set of the same source

| Variant | effect of a mutation on the interaction |
| --- | --- |
| F133L | with no effect |

Variants of: B3
Conditions: with rubic_human RUBCN
Remark: another data set of the same source

| Variant | effect of a mutation on the interaction |
| --- | --- |
| F133V | with no effect |

Variants of: B3
Conditions: with rubic_human RUBCN
Remark: another data set of the same source

| Variant | effect of a mutation on the interaction |
| --- | --- |
| Y87C | with no effect |

Variants of: B4
Conditions: with rad52_human RAD52, P43351

| Variant | effect of a mutation on the interaction |
| --- | --- |
| Y87C | with no effect |

Variants of: B4
Conditions: with rad52_human RAD52, P43351
Remark: another data set of the same source

| Variant | effect of a mutation on the interaction |
| --- | --- |
| F133L | with no effect |

Variants of: B4
Conditions: with rad52_human RAD52, P43351
Remark: another data set of the same source

| Variant | effect of a mutation on the interaction |
| --- | --- |
| F133V | with no effect |

Variants of: B4
Conditions: with rad52_human RAD52, P43351
Remark: another data set of the same source

| Variant | effect of a mutation on the interaction |
| --- | --- |
| F102C | with no effect |

Variants of: B5
Conditions: with rasf8_human RASSF8, Q8NHQ8

| Variant | effect of a mutation on the interaction |
| --- | --- |
| Y87C | with no effect |

Variants of: B5
Conditions: with rasf8_human RASSF8, Q8NHQ8
Remark: another data set of the same source

| Variant | effect of a mutation on the interaction |
| --- | --- |
| F102C | with no effect |

Variants of: B5
Conditions: with rasf8_human RASSF8, Q8NHQ8
Remark: another data set of the same source

| Variant | effect of a mutation on the interaction |
| --- | --- |
| F133V | with no effect |

Variants of: B5
Conditions: with rasf8_human RASSF8, Q8NHQ8
Remark: another data set of the same source

| Variant | effect of a mutation on the interaction |
| --- | --- |
| F133L | with no effect |

Variants of: B6
Conditions: with med23_human MED23, Q9ULK4

| Variant | effect of a mutation on the interaction |
| --- | --- |
| F133L | with no effect |
